Data from patent publication US20130202591A1 (ANAPTYSBIO, published 2013).

Tests used:
human IL-17 [1] = molecular target: T1, human IL-17 (human, UniProt Q16552 24-155); experiment: SPR (BIACORE A100), IgG from transfection supernatant captured by anti-human Fc on CM5 chip, human IL-17 flowed over; 1:1 model with mass transport
T1 construct: also called hIL-17; IL-17A

human IL-17 [2] = molecular target: T1, human IL-17; experiment: KINEXA 3000, solution equilibrium, free antibody captured on human IL-17a beads
[3] = molecular target: T2, human Myc-IL-17a (APE280) (human, UniProt Q16552 24-155, limits assumed); experiment: competition ELISA: plate coated with myc-IL-17a (APE280), antibody titrated against biotinylated IL-17RA (sheet: 2.1 nM, overnight incubation), bound IL-17RA detected with avidin-HRP, OD450 as % of no antibody
T2 construct: not shown: Myc tag

human IL-17 [4] = molecular target: T1, human IL-17; experiment: Average KINEXA values
[5] = molecular target: T3, IL-17 antigen (APE349) linked to wasabi fluorescent protein (WFP) (labeled with Eu3+-TBP-NHS Cryptate); experiment: HTRF competition against the labelled second reference antibody
T3 construct: also called labeled antigen

[6] = molecular target: T2, human Myc-IL-17a (APE280); experiment: cell-based or functional assay
human IL-17 [7] = molecular target: T1, human IL-17; experiment: cell-based or functional assay
[8] = molecular target: T2, human Myc-IL-17a (APE280); experiment: competition ELISA, plate-coated myc-IL-17a, biotinylated IL-17RA as competitor, IC50 comparison

Kd (human IL-17 [1]) [nM] | Kd (human IL-17 [2]) [nM] | Binder | also measured
> 10 | – | 546/773 (antibody, V domains shown, IgG captured by anti-human Fc; also called Well 9) VH: EVQLVESGGGLVQPGGSLRLSCAASGFTFSSYWMSWVRQAPGKGLEWVANIKQDGSEKYYVDSVKGRFTISRDNAKNSLYLQMNSLRAEDTAVYYCARDYYDILTDYYIHYWYFDLWGRGTLVTVSS VL: not shown | –
– | 0.092 | APE499-1332/773 (antibody, V domains shown, Human IgG (detected with anti-human IgG)) VH: EVQLVESGGGLVQPGGSLRLSCAASGFTFSNHWMNWVRQTPGKGLEWVAAINEDGSEKYYVGSVKVRFIISRDNAKNSLYLQMNSLRVEDTAVYYCARDYYDILTDYYIHYWYFDLWGRGTLVTVSS VL: not shown | –
< 1 | 0.322 | APE265-817/773 (antibody, V domains shown, also called Well 11) VH: EVQLVESGGGLVQPGGSLRLSCAASGFTFSNHWMNWVRQAPGKGLEWVAAINEDGSEKYYVGSVKGRFTISRDNAKNSLYLQMNSLRVEDTAVYYCARDYYDILTDYYIHYWYFDLWGRGTLVTVSS VL: not shown | –
< 1 | – | antibody with heavy chain SEQ ID NO: 30 and light chain SEQ ID NO: 24 (antibody, V domains shown, IgG captured by anti-human Fc; also called Well 8) VH: EVQLVESGGGLVQPGGSLRLSCAASGFTFSNYWMNWVRQAPGKGLEWVAAINQDGSEKYYVGSVKGRFTISRDNAKNSLYLQMNSLRVEDTAVYYCVRDYYDILTDYYIHYWYFDLWGRGTLVTVSS VL: not shown | –
– | 0.27 | APE545-1346/773 (antibody, V domains shown, Human IgG (detected with anti-human IgG)) VH: EVQLVESGGGLVQPGGSLRLSCAASGFTFSSHWMSWVRQTPGKGLEWVASIKEDGSEKYYVGSVKVRFIISRDNAKNSLYLQMNSLRVEDTAVYYCARDYYDILTDYYIHYWYFDLWGRGTLVTVSS VL: not shown | –
– | 1.2 | APE480-1261/773 (antibody, V domains shown, Human IgG (detected with anti-human IgG)) VH: EVQLVESGGGLVQPGGSLRLSCAASGFTFSDFWMDWVRQTPGKGLEWVASIKEDGSEKYYVDSVKVRFTISRDNAKNSLYLQMNSLRAEDTAVYYCARDYYDILTDYYIHYWYFDLWGRGTLVTVSS VL: not shown | –
< 1 | – | antibody with heavy chain SEQ ID NO: 4 and light chain SEQ ID NO: 29 (antibody, V domains shown, IgG captured by anti-human Fc; also called Well 4) VH: EVQLVESGGGLVQPGGSLRLSCAASGFTFSNHWMNWVRQAPGKGLEWVAAINEDGSEKYYVGSVKGRFTISRDNAKNSLYLQMNSLRVEDTAVYYCARDYYDILTDYYIHYWYFDLWGRGTLVTVSS VL: not shown | –
< 1 | – | antibody with heavy chain SEQ ID NO: 30 and light chain SEQ ID NO: 25 (antibody, V domains shown, IgG captured by anti-human Fc; also called Well 15) VH: EVQLVESGGGLVQPGGSLRLSCAASGFTFSNYWMNWVRQAPGKGLEWVAAINQDGSEKYYVGSVKGRFTISRDNAKNSLYLQMNSLRVEDTAVYYCVRDYYDILTDYYIHYWYFDLWGRGTLVTVSS VL: not shown | –
– | 0.049 | APE860-1723/773 (antibody, V domains shown, Human IgG (detected with anti-human IgG)) VH: EVQLVESGGGLVQPGGSLRLSCAASGFTFNNHWMNWVRQTPGKGLEWVAAINEDGSEKYYVGSVKVRFTISRDNAKNSLYLQMNSLRVEDTAVYYCVRDYYDILTDYYIHYWYFDLWGRGTLVTVSS VL: not shown | –
– | 0.126 | APE498-1330/773 (antibody, V domains shown, Human IgG (detected with anti-human IgG)) VH: EVQLVESGGGLVQPGGSLRLSCAASGFTFSNHWMNWVRQTPGKGLEWVAAINEDGSEKYYVGSVKVRFTISRDNAKNSLYLQMNSLRVEDTAVYYCTRDYYDILTDYYIHYWYFDLWGRGTLVTVSS VL: not shown | –
< 1 | – | 843/773 (antibody, V domains shown, IgG captured by anti-human Fc; also called Well 14) VH: EVQLVESGGGLVQPGGSLRLSCAASGFTFSNYWMNWVRQAPGKGLEWVASINQDGSEKYYVGSVKGRFTISRDNAKNSLYLQMNSLRVEDTAVYYCVRDYYDILTDYYIHYWYFDLWGRGTLVTVSS VL: not shown | –
> 10 | – | antibody with heavy chain SEQ ID NO: 2 and light chain SEQ ID NO: 29 (antibody, V domains shown, IgG captured by anti-human Fc; also called Well 3) VH: EVQLVESGGGLVQPGGSLRLSCAASGFTFSSHWMSWVRQAPGKGLEWVANIKEDGSEKYYVDSVKGRFTISRDNAKNSLYLQMNSLRAEDTAVYYCARDYYDILTDYYIHYWYFDLWGRGTLVTVSS VL: not shown | –
– | 0.043 | APE508-1266/773 (antibody, V domains shown, Human IgG (detected with anti-human IgG)) VH: EVQLVESGGGLVQPGGSLRLSCAASGFTFSNHWMNWVRQTPGKGLEWVAAINEDGSEKYYVGSVKVRFTISRDNAKNSLYLQMNSLRVEDTAVYYCVRDYYDILTDYYIHYWYFDLWGRGTLVTVSS VL: not shown | IC50 [3]: 1.6 nM; koff (human IL-17 [4]): 1.8e-05 s⁻¹; kon (human IL-17 [4]): 418000 M⁻¹ s⁻¹; binding result [5]: binds
> 10 | – | antibody with heavy chain SEQ ID NO: 9 and light chain SEQ ID NO: 29 (antibody, V domains shown, IgG captured by anti-human Fc; also called Well 7) VH: EVQLVESGGGLVQPGGSLRLSCAASGFTFSNYWMNWVRQAPGKGLEWVASINQDGSEKYYVGSVKGRFTISRDNAKNSLYLQMNSLRVEDTAVYYCVRDYYDILTDYYIHYWYFDLWGRGTLVTVSS VL: not shown | –
> 10 | – | antibody with heavy chain SEQ ID NO: 1 and light chain SEQ ID NO: 29 (antibody, V domains shown, IgG captured by anti-human Fc; also called Well 2) VH: EVQLVESGGGLVQPGGSLRLSCAASGFTFSSYWMSWVRQAPGKGLEWVANIKQDGSEKYYVDSVKGRFTISRDNAKNSLYLQMNSLRAEDTAVYYCARDYYDILTDYYIHYWYFDLWGRGTLVTVSS VL: not shown | –
– | 0.948 | APE490-1263/773 (antibody, V domains shown, Human IgG (detected with anti-human IgG)) VH: EVQLVESGGGLVQPGGSLRLSCAASGFTFSDFWMDWVRQTPGKGLEWVASIKEDGSEKYYVGSVKVRFTISRDNAKNSLYLQMNSLRVEDTAVYYCARDYYDILTDYYIHYWYFDLWGRGTLVTVSS VL: not shown | –
– | 0.067 | APE422-1141/773 (antibody, V domains shown, Human IgG (detected with anti-human IgG)) VH: EVQLVESGGGLVQPGGSLRLSCAASGFTFSNHWMNWVRQTPGKGLEWVAAINEDGSEKYYVGSVKVRFTISRDNAKNSLYLQMNSLRVEDTAVYYCARDYYDILTDYYIHYWYFDLWGRGTLVTVSS VL: not shown | koff (human IL-17 [4]): 2.4e-05 s⁻¹; kon (human IL-17 [4]): 360000 M⁻¹ s⁻¹
< 1 | 9.4 | APE321-844/773 (antibody, V domains shown, Human IgG; also called Well 12) VH: EVQLVESGGGLVQPGGSLRLSCAASGFTFSSYWMSWVRQAPGKGLEWVASIKQDGSEKYYVDSVKGRFTISRDNAKNSLYLQMNSLRAEDTAVYYCARDYYDILTDYYIHYWYFDLWGRGTLVTVSS VL: not shown | –
– | 0.875 | APE744-1266/1540 (antibody, V domains shown, Human IgG (detected with anti-human IgG)) VH: EVQLVESGGGLVQPGGSLRLSCAASGFTFSNHWMNWVRQTPGKGLEWVAAINEDGSEKYYVGSVKVRFTISRDNAKNSLYLQMNSLRVEDTAVYYCVRDYYDILTDYYIHYWYFDLWGRGTLVTVSS VL: not shown | –
> 10 | – | antibody with heavy chain SEQ ID NO: 6 and light chain SEQ ID NO: 27 (antibody, V domains shown, IgG captured by anti-human Fc; also called Well 20) VH: EVQLVESGGGLVQPGGSLRLSCAASGFTFSSYWMSWVRQAPGKGLEWVASIKQDGSEKYYVDSVKGRFTISRDNAKNSLYLQMNSLRAEDTAVYYCARDYYDILTDYYIHYWYFDLWGRGTLVTVSS VL: not shown | –
– | 6.9 | APE470-1150/773 (antibody, V domains shown, Human IgG (detected with anti-human IgG)) VH: EVQLVESGGGLVQPGGSLRLSCAASGFTFSDFWMDWVRQAPGKGLEWVANIKEDGSEKYYVDSVKGRFTISRDNAKNSLYLQMNSLRAEDTAVYYCARDYYDILTDYYIHYWYFDLWGRGTLVTVSS VL: not shown | –
– | 0.0049 | APE755-1574/773 (antibody, V domains shown, Human IgG (detected with anti-human IgG)) VH: EVQLVESGGGLVQPGGSLRLSCAASGFTFSNHWMNWVRQTPGKGLEWVAAINEDGSEKYYVGSVKVRFTISRDNAKNSLYLQMNSLRVEDTAVYYCARDYYDILTRDYYDILTDYYIHYWYFDLWGRGTLVTVSS VL: not shown | IC50 [3]: 0.34 nM; koff (human IL-17 [4]): 5.9e-06 s⁻¹; kon (human IL-17 [4]): 1.2e+06 M⁻¹ s⁻¹; IL-8 release from human IL-17-stimulated cell lines, potency against the first reference anti-IL17a antibody [6]: 2 fold; IL-6 and IL-8 release from IL-17-stimulated primary human RA synovial fibroblasts, potency against the reference anti-IL-17a antibodies (human IL-17 [7]): 5 fold; fold potency in blocking IL-17/IL-17RA interaction against the first reference anti-IL-17a antibody [8]: 40 fold
